The target of the test is TssM (enteroaggregative Escherichia coli (EAEC)). The experiment in a line: cryo-EM structure.

In turn, TssJ (natural protein) came in with a stoichiometry N (TssJ per TssM) of 1.5.
